# T1: Dt2-6xHis (soybean; cultivar of the cloned CDS not …, UniProt I1N4Q7 1-253)
# T1 sequence: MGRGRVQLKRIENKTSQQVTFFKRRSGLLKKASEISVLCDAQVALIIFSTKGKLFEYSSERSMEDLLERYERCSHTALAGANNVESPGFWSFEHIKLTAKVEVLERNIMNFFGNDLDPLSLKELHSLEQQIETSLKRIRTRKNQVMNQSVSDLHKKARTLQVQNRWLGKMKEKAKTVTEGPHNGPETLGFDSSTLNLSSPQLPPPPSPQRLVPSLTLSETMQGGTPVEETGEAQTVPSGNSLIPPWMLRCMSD
# B1: Dt1-CArG1 (dsDNA)
# DNA 1: AATATCCAAATTTAGAAATATG
# DNA 2: CATATTTCTAAATTTGGATATT
# B2: Dt1-CArG2 (dsDNA)
# DNA 1: CTTATACCAAAATAAGCAACTAAC
# DNA 2: GTTAGTTGCTTATTTTGGTATAAG
# B3: Dt1-CArG5 (dsDNA)
# DNA 1: TCTTTTACCAATATTGGAACTTGG
# DNA 2: CCAAGTTCCAATATTGGTAAAAGA
# Experiments:
# [1] = molecular target: T1, Dt2-6xHis; test: EMSA; DIG Gel Shift Kit (Roche 3353591910), manufacturer's instructions; buffer, salt, pH and temperature not stated; conditions: protein: recombinant; tags: 6xHis (pET-DEST42); chain copies: 2; label: digoxigenin; blunt
# [2] = molecular target: GmSOC1-6xHis (soybean; cultivar of the cloned CDS not …, UniProt A0A2K7FY55 1-209); test: as above; conditions: protein: recombinant; tags: 6xHis (pET-DEST42); chain copies: 2; label: digoxigenin; blunt
# Sequence of GmSOC1-6xHis (A0A2K7FY55 entry or part of it): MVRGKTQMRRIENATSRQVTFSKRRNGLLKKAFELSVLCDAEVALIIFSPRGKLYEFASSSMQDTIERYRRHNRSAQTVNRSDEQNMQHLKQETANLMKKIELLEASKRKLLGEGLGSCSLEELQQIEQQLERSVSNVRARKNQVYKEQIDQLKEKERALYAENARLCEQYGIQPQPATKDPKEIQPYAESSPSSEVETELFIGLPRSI
binder,measurement,setting,value
B1,binding result,[1],binds
B2,binding result,[1],binds
B3,binding result,[2],binds
same,binding result,[1],binds
